Results: doi:10.1101/2021.12.26.474192 (bioRxiv, 2021)

B1: psNb 2-31 (VHH)
VHH: QVQLVESGGGLVQAGESLRLSCAASKPTFRNFAAGWFRQTPGKDREFVAVIEYDGDSAYYADSVKGRFTISRDNAKNTVYLQMNRLKPGDTAVYICAIGGNHYDPSKYYTADEYDYWGQGTQVTVSS
B2: psNb 2-45 (VHH)
VHH: QVQLVESGGGLVQAGGSLRLSCTASGYDFSILAIAWYRQAPGKERELVAAISRVGSTDYADSVKGRFTISRDNTKNTVSLQMDSLKPEDTAVYYCNAGIPMTTVLSGLGFWGQGTQVTVSS
B3: psNb 2-67 (VHH)
VHH: EVQLVESGGGLVQTGGSLRLSCALSGYTFSIFPTAWFRQAPGKEREFVAGIRWNGSTRDYTEYADFVKGRFTISRDNAKNMVYLQMISLKPEDTALYYCAASDGVIDGTNANAYRYWGQGTQVTVSS
B4: psNb 2-10 (VHH)
VHH: QVQLVESGGGLVQPGGSLRLSCAASGFTFNRYAMSWVRQAPGKGREWVSGIYSDGSETYYTESVKGRFTISRDNAKNMLYLQMNSLKPEDTALYYCAKDENAHEDYFNSGFDRKYDYWGQGTQVTVSS
B5: psNb 2-62 (VHH)
VHH: QVQLVESGGGLVQAGGSLRLSCAASGRTFSTYAMAWFRQAPGKEREFVAGVARSADTTYYGDSVKGRFTISRDNAKNEVNLQMSSLKPEDTAVYYCAARSVIQYGIVPGNDFHYEYWGQGTQVTVSS
B6: psNb 1-25 (VHH)
VHH: HVQLVESGGGLVQAGGSLRLSCATSGRTFSTYRMSWFRQAPGKEREFVATIIWSVGSTHYADSVKGRFTISRDNAKNMVYLQMNSLKPEDTAVYYCAAQRSDSSSWGYEDDYDYWGQGTQVTVSS
B7: psNb 2-34 (VHH)
VHH: HVQLVESGGGLVQAGGSLRLSCAASGRTFSRYAAGWFRQAPGKEREFVAVIEWDGDSAYYADPVKGRFTISRDNAKNTVYLQMNRLKPEDTAVYICAVGGNHYSRSKYYNLDEYDDWGQGTQVTVSS
B8: psNb 1-21 (VHH)
VHH: HVQLVESGGGLVQAGGSLRLSCAAPGRTFSTSAMGWFRQAPGKEREFVAAIDWSNTNIHYADTVKGRFTISTDTAKNTVYLQMNNLKPEDTAVYYCAQGGWGLTQPISVDYWGKGTQVTVSS
B9: psNb 1-22 (VHH)
VHH: HVQLVESGGGLVQPGGSLRLSCAASGRSFNSYLMGWFRQAPGKEREFVAWISGSPHDIIRYRDSVKDRFTISRDNAKNTVYLQMNSLKPVDTAVYYCAVGSLRVGSFSPDYWGQGTQVTVSS
B10: psNb 1-23 (VHH)
VHH: QVQLVESGGGLVQAGGSLRLSCAASGRTDSISDMGWFRQAPGKEREFVAVVGWSGGGTDYAHSVKGRFTISRDNAKNTVYLQMNSLKPEDTAVYYCAVGSLRVGSFSVEYWGQGTQVTVSS
B11: psNb 2-38 (VHH)
VHH: QVQLVESGGGLVQAGGSLRLSCAAAARFSTSAMGWFRQAPGKEREFVAAISWSNTNTHYADTVKGRFTISADTAKETVDLQMNSLKPEDTAVYYCVQGGWGIRQPIIVDYWGKGTQVTVSS
B12: psNb 2-65 (VHH)
VHH: HVQLVESGGGLVQAGGSLRLSCAASGTISTLNAMGWYRQAPGKQRELLASISNLGTTYHADSVAGRFTISRGSAKNTVNLQMNSLKPDDTAVYYCNTRVLEGGTQIRDYWGQGTQVTVSS

These binders were tested against T1, SARS-CoV RBD, residues 318-510 (SARS-CoV (GenBank AAP13441.1), UniProt P59594) (assay: SPR).

Q: For B1, which Kd is on record?
A: Its Kd is 0.00396 nM.

Q: B2 was tested. Which Kd did it give?
A: Its Kd is 304 nM.

These binders were tested against T2, BM-4831-CoV RBD, residues 310-530 (Bat coronavirus BM48-31/BGR/2008, strain) (assay: SPR).

Q: Which Kd does the source give for B1 here?
A: The Kd was 3.6 nM.

Q: For B2, which Kd is on record?
A: Its Kd is 0.044 nM.

The binders below were run against T3, SARS-CoV-2 receptor-binding domain (RBD), S protein residues 319-539 (SARS-CoV-2, GenBank MN985325.1 …, UniProt P0DTC2) (assay: SPR).

Q: For B1, which Kd is on record?
A: Its Kd is under 0.001 nM.

Q: B2 was tested. Which Kd did it give?
A: The Kd was 0.39 nM.

The binders below were run against T3, SARS-CoV-2 receptor-binding domain … (assay: cryo-EM structure).

Q: Does B3 bind?
A: Result: binds

Q: Does B4 bind?
A: Result: binds

Q: Does B5 bind?
A: Result: binds

Q: Does B6 bind?
A: Result: binds

What follows are binders tested against ZC45-CoV RBD, residues 327-509 (Bat SARS-like coronavirus ZC45, UniProt A0A2R3SUW7, strain) (assay: ELISA).

Q: Does B1 bind?
A: Result: binds

Q: Does B2 bind?
A: Result: binds

Q: Does B7 bind?
A: Result: binds

The binders below were run against Yun11-CoV RBD, residues 310-515 (Bat coronavirus Cp/Yunnan2011, UniProt R9QTH3) (assay: ELISA).

Q: Does B1 bind?
A: Result: binds

Q: Does B2 bind?
A: Result: binds

Q: Does B7 bind?
A: Result: binds

What follows are binders tested against HKU3-1-CoV RBD, residues 322-505 (Bat coronavirus HKU3, isolate HKU3-1, UniProt Q3LZX1, strain) (assay: ELISA).

Q: Does B1 bind?
A: Result: binds

Q: Does B2 bind?
A: Result: binds

Q: Does B7 bind?
A: Result: binds

Each binder was assayed against Shaanxi2011-CoV RBD, residues 321-502 (Bat coronavirus Rp/Shaanxi2011, UniProt R9QTA0, strain) (assay: ELISA).

Q: Does B1 bind?
A: Result: binds

Q: Does B2 bind?
A: Result: binds

Q: Does B7 bind?
A: Result: binds

The binders below were run against T1, SARS-CoV RBD, residues 318-510 (assay: ELISA).

Q: Does B8 bind?
A: Result: binds

Q: Does B7 bind?
A: Result: binds

Q: Does B9 bind?
A: Result: binds

Q: Does B10 bind?
A: Result: binds

Q: Does B11 bind?
A: Result: binds

The binders below were run against SHC014-CoV RBD, residues 307-524 (Bat SARS-like coronavirus RsSHC014, UniProt U5WLK5, strain) (assay: ELISA).

Q: Does B1 bind?
A: Result: binds

Q: Does B2 bind?
A: Result: binds

Q: Does B7 bind?
A: Result: binds

Each binder was assayed against T2, BM-4831-CoV RBD, residues 310-530 (assay: ELISA).

Q: Does B7 bind?
A: Result: binds

Q: Does B9 bind?
A: Result: binds

Q: Does B10 bind?
A: Result: binds

Q: Does B11 bind?
A: Result: binds

Q: Does B12 bind?
A: Result: binds

Each binder was assayed against Rs4081-CoV RBD, residues 310-515 (Bat SARS-like coronavirus Rs4081, UniProt A0A2D1PX44, strain) (assay: ELISA).

Q: Does B1 bind?
A: Result: binds

Q: Does B2 bind?
A: Result: binds

Q: Does B7 bind?
A: Result: binds

Each binder was assayed against T3, SARS-CoV-2 receptor-binding domain … (assay: ELISA).

Q: Does B8 bind?
A: Result: binds

Q: Does B7 bind?
A: Result: binds

Q: Does B9 bind?
A: Result: binds

Q: Does B10 bind?
A: Result: binds

Q: Does B11 bind?
A: Result: binds

Q: Does B12 bind?
A: Result: binds

These binders were tested against Rp3-CoV RBD, residues 322-504 (Bat coronavirus Rp3/2004, UniProt Q3I5J5) (assay: ELISA).

Q: Does B1 bind?
A: Result: binds

Q: Does B2 bind?
A: Result: binds

Q: Does B7 bind?
A: Result: binds

The binders below were run against Rf1-CoV RBD, residues 310-515 (Bat SARS CoV Rf1/2004, UniProt Q0QDZ0, strain) (assay: ELISA).

Q: Does B1 bind?
A: Result: binds

Q: Does B2 bind?
A: Result: binds

Q: Does B7 bind?
A: Result: binds

Each binder was assayed against Rs4092-CoV RBD, residues 314-496 (Bat SARS-like coronavirus Rs4092, UniProt A0A2D1PX37, strain) (assay: ELISA).

Q: Does B1 bind?
A: Result: binds

Q: Does B2 bind?
A: Result: binds

Q: Does B7 bind?
A: Result: binds

These binders were tested against pangolin17-CoV RBD, residues 317-539 (Pangolin coronavirus (pangolin17), strain) (assay: ELISA).

Q: Does B1 bind?
A: Result: binds

Q: Does B2 bind?
A: Result: binds

Q: Does B7 bind?
A: Result: binds

Each binder was assayed against RaTG13-CoV RBD, residues 319-541 (Bat coronavirus RaTG13, UniProt A0ABF7PLN6, strain) (assay: ELISA).

Q: Does B1 bind?
A: Result: binds

Q: Does B2 bind?
A: Result: binds

Q: Does B7 bind?
A: Result: binds

Each binder was assayed against Rs7327-CoV RBD, residues 319-518 (Bat SARS-like coronavirus Rs7327, UniProt A0A2D1PXC0, strain) (assay: ELISA).

Q: Does B1 bind?
A: Result: binds

Q: Does B2 bind?
A: Result: binds

Q: Does B7 bind?
A: Result: binds

The binders below were run against BtkY72-CoV RBD, residues 309-530 (Bat sarbecovirus BtKY72, UniProt A0A3Q8AKM0) (assay: ELISA).

Q: Does B1 bind?
A: Result: binds

Q: Does B2 bind?
A: Result: binds

Q: Does B7 bind?
A: Result: binds

The binders below were run against W1V1-CoV RBD, residues 307-528 (Bat SARS-like coronavirus WIV1 (printed …, UniProt U5WI05)) (assay: ELISA).

Q: Does B1 bind?
A: Result: binds

Q: Does B2 bind?
A: Result: binds

Q: Does B7 bind?
A: Result: binds

The binders below were run against YN2013-CoV RBD, residues 314-496 (BtRs-BetaCoV/YN2013, UniProt A0A0U1WJY8, strain) (assay: ELISA).

Q: Does B1 bind?
A: Result: binds

Q: Does B2 bind?
A: Result: binds

Q: Does B7 bind?
A: Result: binds

The binders below were run against SARS-CoV-2 spike receptor-binding domain (RBD) used in the crystallographic study (SARS-CoV-2, UniProt P0DTC2) (assay: crystal structure).

Q: Does B8 bind?
A: Result: binds
